The results in this text go back to patent publication US20230192820A1 (published 2023).

As usually defined, the EC50 is the concentration needed to bring the measured effect to its halfway point. Read a high EC50 as a need for much substance. As usually defined, the Kd is the constant that tells how readily two partners part at equilibrium. Higher therefore signals a looser complex.

Assay [1] concerns the target SARS-CoV-2 S protein S1 subunit (amino acids 1-604), Myc/His tagged (SARS-CoV-2, UniProt P0DTC2 14-604).
Assay [2] addresses SARS-CoV-2 spike (S) protein on virus or pseudovirus particles (SARS-CoV-2, UniProt P0DTC2 14-1273). Description: cell-based or functional assay.
The target of assay [3] is SARS-CoV-2 S protein RBD (amino acids 319-541) (SARS-CoV-2, UniProt P0DTC2 319-541).
The target in assay [4] is SARS-CoV S protein RBD (amino acids 270-510) (SARS-CoV (Urbani strain), UniProt P59594 270-510).

B1: MAb362 (antibody, V domains shown)
VH: QVQLVESGGGVVQPGRSLRLSCAASGFSFSSYGMHWVRQAPGKGLEWVAVIWYDGSDKYYADSVKGRFTISRDNSKNTLYLQLNSLRAEDTAIYYCARERYFDWIFDFWGQGTLVTVSS
VL: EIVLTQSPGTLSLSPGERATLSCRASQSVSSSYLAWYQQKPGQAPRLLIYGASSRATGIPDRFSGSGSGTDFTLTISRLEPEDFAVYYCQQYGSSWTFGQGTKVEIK
In the case of B1, the EC50 in assay [1] was about 40 nM. Also, the “plaque reduction neutralization test (PRNT), EC50” value in assay [2] is about 5 µg/mL.

B2: MAb362 IgA1 (monomeric) (antibody, V domains shown)
VH: B1 VH
VL: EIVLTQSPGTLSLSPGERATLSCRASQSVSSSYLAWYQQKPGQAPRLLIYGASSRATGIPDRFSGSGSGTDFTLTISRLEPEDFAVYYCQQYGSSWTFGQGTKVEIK
B2: the Kd in assay [3] came to 0.3 nM; in assay [4], 1.4 nM. Besides, the “neutralization of SARS-CoV-2 pseudovirus, IC50” value in assay [2] came out at 1.26 µg/mL.

B3: MAb362 IgG1 (antibody, V domains shown)
VH: B1 VH
VL: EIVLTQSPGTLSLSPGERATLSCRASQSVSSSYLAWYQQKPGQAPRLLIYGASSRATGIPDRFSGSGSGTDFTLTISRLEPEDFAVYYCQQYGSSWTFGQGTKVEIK
With B3, the dissociation constant (Kd) came out at 13 nM in assay [3] and 1.3 nM in assay [4]. Also, the “neutralization of SARS-CoV-2 pseudovirus, IC50” value in assay [2] is 58.7 µg/mL.
